{"source": "patent US20220332812A1", "about": "“TREATMENT METHODS FOR EYE DISORDERS” (University of Pittsburgh - of the Commonwealth System of …, priority 2019, published 2022)", "molecules": {"B1": {"name": "recombinant LCN-2: recombinant Lipocalin-2 protein, full length LCN-2 cDNA expressed in E. coli (protein)", "chain": "QDSTQNLIPAPSLLTVPLQPDFRSDQFRGRWYVVGLAGNAVQKKTEGSFTMYSTIYELQENNSYNVTSILVRDQDQGCRYWIRTFVPSSRAGQFTLGNMHRYPQVQSYNVQVATTDYNQFAMVFFRKTSENKQYFKITLYGRTKELSPELKERFTRFAKSLGLKDDNIIFSVPTDQCIDN"}, "B2": {"name": "βA3/A1-crystallin: two closely related polypeptides encoded by Cryba1, produced by two different translational start sites; biological inhibitor binding PTP1B (protein)", "chain": "METQTVQRELETLPTTKMAQTNPMPGSMGPWKITIYDQENFQGKRMEFTSSCPNVSERSFDNVRSLKVECGAWIGYEHTSFCGQQFILERGEYPRWDAWSGSNAYHIERLMSFRPICSANHKESKITIFEKENFIGRQWEICDDYPSLQAMGWFNNEVGSMKIQCGAWVCYQYPGYRGYQYILECDHHGGDYKHWREWGTHAQTSQIQSIRRIQQ"}}, "key": {"diabetic Nuc1 rats": {"system": "diabetic Nuc1 rats", "experiment": "retinal function by electroretinography (ERG) in diabetic Nuc1 rats", "format": "in vivo, rat", "conditions": "FIGS. 20A-20B", "source_text": "Therefore, βA1-crystallin is a first of its kind inhibitor that can be used as a therapy for DR."}, "Dab2": {"target": "T1, Dab2 (Homo sapiens, UniProt P98082)", "T1 construct": "purchased CDI NextGen Proteomics, MD, USA HuProt v3.1", "T1 sequence (P98082 1-770)": "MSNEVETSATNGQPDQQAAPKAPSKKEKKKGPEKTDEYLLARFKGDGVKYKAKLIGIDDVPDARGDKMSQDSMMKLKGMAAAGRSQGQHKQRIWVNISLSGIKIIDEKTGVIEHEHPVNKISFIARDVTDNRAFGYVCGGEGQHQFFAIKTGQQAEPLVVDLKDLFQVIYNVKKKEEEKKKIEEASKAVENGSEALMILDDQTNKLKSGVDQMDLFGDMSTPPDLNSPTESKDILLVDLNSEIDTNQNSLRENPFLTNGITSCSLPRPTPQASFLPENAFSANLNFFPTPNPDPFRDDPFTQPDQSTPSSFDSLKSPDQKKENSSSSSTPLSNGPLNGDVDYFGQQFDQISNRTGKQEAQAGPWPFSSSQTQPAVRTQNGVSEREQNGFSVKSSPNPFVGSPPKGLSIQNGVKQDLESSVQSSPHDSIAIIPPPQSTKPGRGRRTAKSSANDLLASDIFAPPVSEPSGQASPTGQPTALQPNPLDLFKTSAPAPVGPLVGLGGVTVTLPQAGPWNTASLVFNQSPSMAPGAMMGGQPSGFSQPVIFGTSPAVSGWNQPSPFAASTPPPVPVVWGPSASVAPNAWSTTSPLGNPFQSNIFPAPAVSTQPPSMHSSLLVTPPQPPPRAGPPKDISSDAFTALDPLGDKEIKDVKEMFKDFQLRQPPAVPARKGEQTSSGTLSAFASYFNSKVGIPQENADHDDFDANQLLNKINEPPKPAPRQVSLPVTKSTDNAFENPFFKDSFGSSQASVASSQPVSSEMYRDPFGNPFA", "experiment": "HuProt human proteome microarray, LCN-2 binding partners", "conditions": "recombinant LCN-2 probed at 1 μg/mL, Z-score cutoff 6", "experimental": "The human proteome microarray 2.0 analysis was performed as a paid service from CDI NextGen Proteomics, MD, USA. Recombinant LCN-2 was analyzed for protein-protein interaction profiling on the HuProt™ v3.1 human proteome array and the sample was probed on array plates at 1 μg/mL, with data analyzed using GenePix software. Hit identification was assessed as the ratio of median value of the foreground to the median of the surrounding background for each protein probe on the microarray, followed by normalization to the median value of all neighboring probes within the […] window size and represented as the significance of the probe binding signal difference from random noise (Z-Score). The cutoff Z-score was 6 in this study for the triplicate analysis; only protein interactions with a Z-score above 6 were considered.\nThe above-described observations prompted the further investigation of the possible molecular mechanisms by which neutrophils infiltrate into the retina and thereby contribute to the pathogenesis of AMD. It has previously been shown that LCN-2 regulates neutrophil chemotaxis and cell migration in cancer cells (Shao et al., J. Invest. Dermatol., 136, 1418-1428 (2016), and Du et al., Biochim. Biophys. Acta, 1853: 2240-2250 (2015)). […]"}, "NOD-SCID mice [1]": {"system": "NOD-SCID mice", "experiment": "sub-retinal injection in NOD-SCID mice, OCT", "format": "in vivo, mouse", "source_text": "(§1) NOD-SCID mice (NOD.CB17-Prkdescid/J, Jackson Laboratories, USA, male, 4-5 weeks old) were used for the study. A large sample size, n=10, was taken to nullify any experimental anomaly. Mice were anaesthetized and sub-retinal injections of neutrophils from different experimental groups or recombinant LCN-2 protein were given as described previously (Maruotti et al., Proc. Natl. Acad. Sci. USA., 112: 10950-10955 (2015)). Seven days after treatment, the NOD-SCID mice were anaesthetized by intraperitoneal injection of a ketamine and xylazine mixture and then subjected to Fundus imaging along with OCT analysis using the Bioptigen Envisu R2210 system. OCT images were analyzed on optical sections (100 sections per retina) from each eye ranging from −2.0 to +2.0 mm with respect to the optic nerve head (ONH) using the FIJI-ImageJ (NIH) plugin provided with the instrument along with Diver 2.4 software (Bioptigen). After the experiment, the animals were euthanized with CO2 gas and the eyes were harvested for further experiments. […]"}, "NOD-SCID mice [2]": {"system": "NOD-SCID mice", "experiment": "retinal sections of injected NOD-SCID mice: hematoxylin-eosin staining and immunofluorescence", "format": "in vivo, mouse", "experimental": "Freshly enucleated eyes were fixed in 2% paraformaldehyde (PFA) for 10 min and then the anterior parts (cornea, lens, and attached iris pigmented epithelium) were removed. The resulting posterior eyecups were fixed in 2% PFA for 1 h at room temperature either for cryosections or RPE/retina flat mount. For cryosections, the eyecups were dehydrated through gradient sucrose solutions and embedded in OCT and for RPE/retina flatmounts, tissues were removed after the eyecup was quartered like a petaloid structure. The resulting eyecup was further cut radially into eight pieces from the optic nerve head to the periphery. Immunostaining on human/mouse retina sections or on retina/RPE flatmounts were performed by using appropriate primary antibody (1:100) and incubated at 4° C. overnight. The RPE/retina flatmounts or human or mouse retina sections were washed with 1×TBS thrice and then stained with appropriate secondary antibodies (1:300) with 1 μg/mL DAPI (Sigma Aldrich, USA) in the dark at room temperature for 2 h. The tissue sections or flatmounts were washed 6 times with 1×TBS. The tissues were mounted on a cover slip with DAKO mounting agent and then visualized under a confocal microscope (Zeiss LSM710, Switzerland).\nas §1, with “Seven days after treatment, the NOD-SCID mice were anaesthetized by intraperitoneal injection of a ketamine and xylazine mixture and then subjected to Fundus imaging along with OCT analysis using the Bioptigen Envisu R2210 system.” left out, “(Bioptigen).” for “(Bioptigen). After the experiment, the animals were euthanized with CO2 gas and the eyes were harvested for further experiments.”"}, "PTP1B [3]": {"target": "T2, PTP1B (Homo sapiens, UniProt P18031)", "T2 sequence (P18031 1-435)": "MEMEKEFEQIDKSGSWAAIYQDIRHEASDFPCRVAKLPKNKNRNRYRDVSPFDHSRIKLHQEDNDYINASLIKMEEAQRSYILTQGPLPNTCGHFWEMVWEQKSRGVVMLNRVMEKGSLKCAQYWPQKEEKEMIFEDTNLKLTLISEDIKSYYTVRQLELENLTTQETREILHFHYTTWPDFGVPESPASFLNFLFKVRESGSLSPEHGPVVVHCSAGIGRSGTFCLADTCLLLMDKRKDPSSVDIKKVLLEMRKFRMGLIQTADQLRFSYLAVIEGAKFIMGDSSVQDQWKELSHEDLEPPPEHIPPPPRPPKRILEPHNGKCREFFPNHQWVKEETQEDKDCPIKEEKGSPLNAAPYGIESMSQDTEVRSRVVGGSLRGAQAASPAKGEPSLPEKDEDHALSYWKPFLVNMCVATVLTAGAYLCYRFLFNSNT", "experiment": "pull-down assay", "format": "binding"}, "PTP1B [4]": {"target": "T3, PTP1B (Rattus norvegicus, UniProt P20417)", "T3 construct": "endogenous in cells; host or cells: astrocytes from wild-type and Nuc1 rats", "T3 sequence (P20417 1-432)": "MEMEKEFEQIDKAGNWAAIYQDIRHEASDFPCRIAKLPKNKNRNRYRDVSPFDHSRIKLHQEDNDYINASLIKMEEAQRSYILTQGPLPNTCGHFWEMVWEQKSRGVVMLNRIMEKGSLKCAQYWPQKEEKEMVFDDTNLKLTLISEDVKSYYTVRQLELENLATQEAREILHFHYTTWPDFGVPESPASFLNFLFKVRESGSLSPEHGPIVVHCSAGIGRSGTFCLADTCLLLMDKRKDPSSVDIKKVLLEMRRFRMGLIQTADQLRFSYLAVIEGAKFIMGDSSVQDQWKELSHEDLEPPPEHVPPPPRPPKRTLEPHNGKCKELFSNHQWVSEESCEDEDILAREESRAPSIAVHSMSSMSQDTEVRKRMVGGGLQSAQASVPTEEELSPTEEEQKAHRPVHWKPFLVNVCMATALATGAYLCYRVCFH", "experiment": "co-immunoprecipitation in astrocytes", "conditions": "wild-type astrocytes; binding lost in Nuc1 cells"}, "PTP1B [5]": {"target": "T2, PTP1B", "experiment": "PTP activity kinetics, Lineweaver Burk plots", "format": "biochemical", "conditions": "FIG. 13"}, "PTP1B [6]": {"target": "T2, PTP1B", "experiment": "human proteome high-throughput array, βA3/A1-crystallin binding partners", "set-up": "purchased CDI Laboratories, Inc", "conditions": "human proteome high-throughput array (CDI Laboratories)"}}, "data": [{"molecule": "PTP1B (pull-down assay and enzyme kinetics)", "values": [{"measurement": "Lineweaver Burk plots of PTP activity (Km and Vmax)", "setting": "βA3/A1-crystallin", "result": "Cryba1 treatment decreases the Km and Vmax of PTP activity"}]}, {"molecule": "CC(C)[C@@H](CC[C@@H](C)[C@H]1CC[C@H]2[C@@H]3[C@H](O)C[C@H]4C[C@@H](NCCCNCCCCNCCCN)CC[C@]4(C)[C@H]3CC[C@]12C)OS(=O)(=O)O", "note": "[MSI-1436]", "values": [{"measurement": "retinal function (ERG)", "setting": "diabetic Nuc1 rats", "result": "rescues retinal function abnormality"}]}, {"molecule": "B1", "values": [{"measurement": "interaction with Dab2", "setting": "Dab2", "result": "interact with Dab2"}, {"measurement": "OCT retinal structure after injection of WT neutrophils pre-treated with the substance", "setting": "NOD-SCID mice [1]; NOD-SCID mice injected subretinally, IFNλ 200 U/mL, conditioned media 1:1 diluted, LCN-2 10 pg/mL, FIG. 4(iii)-(v)", "result": "apparent changes in the ONL and INL layers (asterisks), concomitant with severe loss of RPE and IS+OS layer"}, {"measurement": "OCT: alterations of retinal layers", "setting": "NOD-SCID mice [1]; NOD-SCID mice, sub-retinal injection, after 7 days", "result": "alterations in the RPE and photoreceptor (inner and outer segments) layers"}, {"measurement": "hematoxylin-eosin staining of retinal sections", "setting": "NOD-SCID mice [2]; NOD-SCID mice, relative to vehicle control or WT neutrophil injected mice", "result": "degenerative changes in the outer nuclear layer (ONL) along with photoreceptor layer"}, {"measurement": "thickness of retinal layers from sections by spider plot", "setting": "NOD-SCID mice [2]; NOD-SCID mice, relative to vehicle or WT neutrophil-treated groups", "result": "severe loss or thinning of IS/OS and RPE layers"}, {"measurement": "rhodopsin and RPE 65 staining (photoreceptor and RPE cell loss)", "setting": "NOD-SCID mice [2]; immunofluorescence, retina of NOD-SCID mice, with respect to controls", "result": "reduced staining"}]}, {"molecule": "B2", "values": [{"measurement": "binding to PTP1B", "setting": "PTP1B [3]", "result": "bound to PTP1B"}, {"measurement": "binding partner by co-immunoprecipitation", "setting": "PTP1B [4]", "result": "PTP1B was a binding partner"}, {"measurement": "Km of PTP activity", "setting": "PTP1B [5]", "result": "decreases"}, {"measurement": "Vmax of PTP activity", "setting": "PTP1B [5]", "result": "decreases"}, {"measurement": "mode of PTP1B inhibition", "setting": "PTP1B [5]", "result": "uncompetitive inhibitor of PTP1B"}, {"measurement": "interaction with PTP1B", "setting": "PTP1B [6]", "result": "interact with PTP1B"}]}]}
